The text below walks through data of the RNAGym collection of RNA variant scans (doi:10.1073/pnas.2313332121).

B1: TPR 5TU (parent)
chain: GGAUCUUCUCGAUCUAACAAAAAAGACAAAUCUGCCACAAAGCUUGAGAGCAUCUUCGGAUGCAGAGGCGGCAGCCUUCGGUGGCGCGAUAGCGCCAACGUUCUCAACUAUGACACGCAAAACGCGUGCUCCGUUGAAUGGAGUUUAUCAUG

Fewer inactive variants are shown than the library holds.

The variants in the series derive from B1. The series is described as follows: polymerase ribozyme fitness, log enrichment relative to wild type (log ratio); higher = more active; in vitro selection for triplet polymerase activity. In a few lines:
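Mutant libraries for each subunit of a heterodimeric triplet polymerase ribozyme were made by PCR and then transcribed. Each library underwent one round of in vitro selection in triplicate: annealing with a biotinylated primer, the partner subunit and triplets, frozen incubation at −7 °C, gel excision of extended constructs, streptavidin-bead capture and RT-PCR. Input and output libraries were Illumina-sequenced, and only genotypes with ≥10 input reads and ≥1 read per output were kept. Fitness is the logarithm, base 2, of genotype enrichment over wild-type enrichment, computed from inverse-variance-weighted replicate averages.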
In the case of GGAUCUUCUCGAUCUAACAAAAAAGACAAAUCUGCCACAAAGCUUGAGAGCAUCUUCGGAUGCAGAGGCGGCAGCCUUCGGUGGCGCGAUAGCGCUAACGUUCUCAACUAUGACACGCAAAACGCGUGCUCAGUUGAAUGGAGUUUAUCAUG, the “polymerase ribozyme fitness (log ratio)” value was -1.63.
As for GGAUCUUCUCUAUCUAACAAAAAAGACAAAUCUGUCACAAAGCUUGAGAGUAUCGUCGUAUGCAGAGACGGCAGCCUUCAGUAGCGCGAUAGCGCCAACGUUCUCAACUAUGACACGCAAAACGCGUGCUCCGUUGAAUGGAGUUUAUCAUG, the “polymerase ribozyme fitness (log ratio)” value was ≤ -4.2.
For GGAUCUUCUCGAUUUAACAAAAAAGACAAAUCUUCCACAAAGCUUGAGCGCAUCUUCGCAUGCAGAGGAGGCAGCCUUCGGUGGCGCGAUCGCGCCAACGUUCUCAACUAUGACACGCAAAACGCGUGCUCCGUUGAAAGGAGUUUCUCAUG, the “polymerase ribozyme fitness (log ratio)” value was ≤ -4.2.
Consider GGAUCUUCUCGAUCUAACAAAAAAGACAAAUCUGCCACAAAGCUUGAGAGCAUCUUCAGAUGCAGAGGCGGCAGCCUUCGGUGGCGCGAUAGCGCUAACGUUCUCAACUAUGACACGCAAAACGCGUGCUCCGUUGAAUGGAGUUUAUCAUG, for which the “polymerase ribozyme fitness (log ratio)” value amounted to 0.538.
As to GGAUCUUCUCGAUCUAACAAAAAAGACAAAUCUGCCACAAAGCUUGAGAGCAUCUUCGGAUGCAGAGGCGGCAGCCUUCGGCGGCGCGAUAGCGGCAACGUUCUCAACUAUGACACGCAAAACGCGUGCUCCGUUGAAUGGAGUUUACCAUG, the “polymerase ribozyme fitness (log ratio)” value was -4.02.
Take GGAUCUUCUCGAUCUAACAAAAAAGAUAAAUCUGCCACAAAGCUUGUGCGCAUCUUCGGAUGCAGAGGCGGCAGCCUUCGGUGGCGCGAUAGCGCCAACGUUCUCAACUAUGACACACAAAACGCGUGCUCCGUUGAAUGGAGUUUAUCAUG: the “polymerase ribozyme fitness (log ratio)” value was ≤ -4.2.
In the case of GGAUCUUCUCGAUCUAACAAUAAAGACAAAUCUGCCACAAAGCUUGAGAGCAUCAUCGGAUGCAGAGGCGGCAGCCUUCGGUGGCGCGAUAGCGCCAACGUUCUCAACUAUGACACGCAAAACGCGUGCUCCGUUGAAUGGAGUUUAUCAUG it was -0.879; in that of GGAUCUUCUCGAUCUAACAAAAAAGACAAAUCUGCCACAAAGCUUGAGAGCAUCUUCGGAUGCAGAGGCGGCAGCCUUCGGUGGCCGGAUAGCGCCAACGUUCUCAAGUAUGACACGCAAAACGCGUGCUCCGUUGAAUGGAGUUUAUCAUG, ≤ -4.2.
Turning to GGAUCUUCUCGAUCUAUCAAUAAAGACAAAUCUGCCACAAAGCUUGAGAGCAUCUUCGGAUGCAGACGCGGCAGCUUUCGGUGGCGCGAUUGCGCCAACGUUCUCAACUAUGACACGGAAAACGCGUGCUCCGUUGAAUGGAGUUUAUCAUG, the “polymerase ribozyme fitness (log ratio)” value is ≤ -4.2.
Regarding GGAUCUUCUCGAUCUAACAAAAAAGACAAAUCUGCCACAAAGCUUGAGAGCAUCUUUGGAUGCAGAGGCGGCAGCCUUCGGUGGCGCGAUAGCGCCAACGUGCUCAACUAUGACACGCAAAACGCGUGCUCCGUUGAAUGGAGUUUAUCAUG, the “polymerase ribozyme fitness (log ratio)” value was -1.87.
As for GGAUCUCCUCGAUCUAACAAAAAAGACAAAUCUGCCACAAAGCUUGAGAACAUCUUCGGAUGCAGGGGCGGCAGCCUUCGGUGGCGCGAUAGCGCCAACGUUCUCAACUAUGACACGCAAAACGCGUGCUCCGUUGAAUGGAGUUUAUCAUG, the “polymerase ribozyme fitness (log ratio)” value is ≤ -4.2.
Regarding GGAUCUUCUCGAUCUAACAAAAAAGACAAAUCUGCCACAAAGCUUGAGAGAAUCUUCGGAUGCAGAGGCGGCAGCCUUCGGUGGCGCGAUAGUGCCAACGUUCUCAACUAUGACACGCAAAACGCGUGCUCCGUUGAAUGGAGUUUAUCAUG, the “polymerase ribozyme fitness (log ratio)” value is -2.22.
The value for GGAUCUUCUCGAUCUAACAAAAAAGACAAAUCUGCCACAAAGCUUGAGAGCAUCUUCGGAUGCAGAGGCGGCAGCCUUCGGUGUCGCGAUAGCGUCAACGUUCUCAACUAUGACACGCAAAACGCGUGCUCCGUUGAAUGGACUUUAUCAUG was -3.33; that for GGGUCUUGUCGAUCUAACAAAACAGACAAAUCUGCCACAAAGCUUGAGAGCAUAUUCGGAUGCAGAGGCGGCAGCCUUCCAUGGCGCGUUAGGGCCAACGUUCUCAACUAUGACACGCAAAACGCGUGCUCCGUUGAAUGGAGUUUAUCAUG was ≤ -4.2; that for GGAUCUUCUCGAUCUAACAAUAAAGACAAUUCUGCCAGAAAGCUUGAGAGCAUCUUCGGAUGCAGAGGCGGCAGCCUUCGGUGGGGCGAUAGCGCCAACGUUCUCAACUAUAACACGCAAAACACGUGCUCCGUUGAAUGGAGUUUAUCAUG was ≤ -4.2.
In the case of GGAUCUUCUCGAUCUAACAAAAAAGACAAAUCUGCCCCAAAGCUUGAGAGCAUCUUCGGAUGCAGAGGCUGCAGCCUUCGGUGGCGCGAUAGCGCGAACGUUCUCAACUAUGACACGCAAAACGCGUGCUCCGUUGAAUGGAGUUUAUCAUG it was ≤ -4.2.
For the variant GGAUCUUCUCGAUCUAACAAAAAAGACAAAUCUGCCACAAAGCUUGAGAACAUCUUCGGAUGCAGAGGCGGCAGCCUUCGGUGGCGCGAUAGCUCCAACGUUCUCAACUAUGACACGCAAAACGCGUGCUCCGUUGAAUGGAGUUUAUCAUG, the “polymerase ribozyme fitness (log ratio)” value is -3.07.
As for GGAUCUUCUCGAUCUAACAGAAAAGACAAAUCUGCCAAAAAGCUUGAGAGCAUCUUCGGAUGCAGAGGCGGCAGCCUUCGGUGGCGCGAUAGCGUCAACGUUCUCAACUAUGACACGCAAAACGUGUGCUCCGUUGAAUCGAGUUUAUCAUG, the “polymerase ribozyme fitness (log ratio)” value is ≤ -4.2.
Turning to GGAUCUUCUCGAUCUAACAAAAAAGACAAAUCUGCCACAAAGCUUGAGAGCAUCUUCGGAUGCAGAGGCGGCAGCCUUCGGUGGCUCGAUAGCGCCAACGUUCUCCACUAUGACACGCAAAACGCGUGCUCCGUUGAAUGGAGUUUAUCAUG, the “polymerase ribozyme fitness (log ratio)” value was -1.79.
